Test results taken from patent publication US20170258870.

Biological target: myc-tagged LIMP-2

B1: wild-type β-glucocerebrosidase (GC), human, overexpressed in cells (protein)
chain: ARPCIPKSFGYSSVVCVCNATYCDSFDPPTFPALGTFSRYESTRSGRRMELSMGPIQANHTGTGLLLTLQPEQKFQKVKGFGGAMTDAAALNILALSPPAQNLLLKSYFSEEGIGYNIIRVPMASCDFSIRTYTYADTPDDFQLHNFSLPEEDTKLKIPLIHRALQLAQRPVSLLASPWTSPTWLKTNGAVNGKGSLKGQPGDIYHQTWARYFVKFLDAYAEHKLQFWAVTAENEPSAGLLSGYPFQCLGFTPEHQRDFIARDLGPTLANSTHHNVRLLMLDDQRLLLPHWAKVVLTDPEAAKYVHGIAVHWYLDFLAPAKATLGETHRLFPNTMLFASEACVGSKFWEQSVRLGSWDRGMQYSHSIITNLLYHVVGWTDWNLALNPEGGPNWVRNFVDSPIIVDITKDTFYKQPMFYHLGHFSKFIPEGSQRVGLVASQKNDLDAVALMHPDGSAVVVVLNRSSKDVPLTIKDPAVGFLETISPGYSIHTYLWRRQ
  GC enzymatic activity on co-expression with LIMP-2: Upon co-expression of wild-type GC and LIMP-2 we observed a significant increase in GC activity
